# Test results from patent US20260070976A1 (Alector, published 2026).
# Experiments:
# [1] = target: T1, human PILRA G78 on HEK293F cells (human, UniProt Q9UKJ1 20-303); experiment: FACS on HEK293F cells, binding on human PILRA (hA) over human PILRB (hB)
# T1 construct: also called hA; G78 OE
# Experimental: (§1) Conditioned media samples containing the tested anti-PILRA antibodies were assessed for binding to HEK293F cells overexpressing human PILRA (hA), human PILRB (hB), and cynomolgus PILRA (cA) by FACS. The conditioned media containing the tested antibodies were incubated with the cells for 30 min at 4° C., washed twice, and then detected with goat anti-human IgG secondary antibody (Alexa Fluor 647) at 1:1000 dilution. The cells were analyzed by flow cytometry on FACS Canto II, and for all cell lines, the reported MFI values were calculated for each conditioned media. These antibodies were evaluated for nonspecific binding using a baculovirus particle (BVP) assay (Jain T., Sun T., Durand S., Hall A., Houston N. R., Nett J. H., Sharkey B., Bobrowicz B., Caffry L, Yu Y., et al. Biophysical properties of the clinical-stage antibody landscape. Proc. Natl. Acad. Sci. USA. 2017; 114:944-949. Doi: 10.1073/pnas.1616408114.). The BVP scores are listed in Table 9, and the higher the score the more nonspecific binding that occurred.
# [2] = target: T2, cell surface PILRA on human monocytes (human, UniProt Q9UKJ1 20-303); experiment: flow cytometry; Alexa Fluor 647-conjugated antibody on human CD14+ monocytes (second donor sample), Fc receptors blocked, 30 min on ice
# T2 construct: Native PILRA on CD14+ monocytes of healthy donors; also called human PILRA; hu mono
# T2 sequence (Q9UKJ1 20-303): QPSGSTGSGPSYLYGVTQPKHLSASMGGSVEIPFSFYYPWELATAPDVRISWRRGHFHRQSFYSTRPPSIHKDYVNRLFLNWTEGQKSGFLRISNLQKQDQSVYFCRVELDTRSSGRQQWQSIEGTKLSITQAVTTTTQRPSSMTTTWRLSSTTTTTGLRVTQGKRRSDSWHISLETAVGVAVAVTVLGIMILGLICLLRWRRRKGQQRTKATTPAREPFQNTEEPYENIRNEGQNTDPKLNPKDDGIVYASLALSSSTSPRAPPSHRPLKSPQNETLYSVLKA
# Experimental: (§2) Anti-human PILRA antibodies X0 (PA-29) and its affinity matured variants were tested for their abilities to bind cell surface PILRA on human and cynomolgus monocytes. CD14+ monocytes were isolated from healthy human donors using a RosetteSep Human Monocyte Enrichment Cocktail kit (StemCell). Cynomolgus white blood cells were collected from cynomolgus whole blood. In both human and cynomolgus samples, the Fc receptor on the tested monocytes was blocked and the monocytes were treated with Alexa Fluor 647-conjugated PILRA antibodies for 30 minutes on ice. A dose response curve of antibodies X0 (PA-29), X1, X2, X7, X11, X12, X13, X14, X16, X18, and X20 was tested for binding to cell surface PILRA in human and cynomolgus monocytes, and antibodies bound to PILRA in a dose response manner. In another sample of human donor monocytes, a dose response curve of antibodies X0 (PA-29), X1, X2, X11, X13, X18, X29 (PA-43), and X34 (A6) was tested for binding to cell surface PILRA in human and cynomolgus monocytes, and antibodies bound to PILRA in a dose response manner.
# [3] = target: T3, human PILRB on HEK293F cells (human, UniProt Q9UKJ0 20-227); experiment: hB Kd of Table 9; method not stated (Example 8: HEK293F overexpressing cells, FACS)
# T3 construct: also called hB
# T3 sequence (Q9UKJ0 20-227): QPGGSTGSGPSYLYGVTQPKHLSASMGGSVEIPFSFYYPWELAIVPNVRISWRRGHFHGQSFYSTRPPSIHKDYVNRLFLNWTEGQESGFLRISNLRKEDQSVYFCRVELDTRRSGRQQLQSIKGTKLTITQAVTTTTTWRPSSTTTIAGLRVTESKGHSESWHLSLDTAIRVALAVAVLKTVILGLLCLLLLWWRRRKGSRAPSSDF
# [4] = target: T2, cell surface PILRA on human monocytes; experiment: cell-based or functional assay
# recombinant human PILRB [5] = target: T4, recombinant human PILRB (human, UniProt Q9UKJ0 20-191); experiment: SPR, Carterra LSA, steady-state fit
# T4 sequence (Q9UKJ0 20-191 limits assumed): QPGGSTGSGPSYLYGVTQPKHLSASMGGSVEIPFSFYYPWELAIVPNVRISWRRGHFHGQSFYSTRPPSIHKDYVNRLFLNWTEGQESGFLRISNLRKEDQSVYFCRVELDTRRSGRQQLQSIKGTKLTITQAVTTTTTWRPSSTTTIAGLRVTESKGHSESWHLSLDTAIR
# recombinant human PILRA [6] = target: T5, recombinant human PILRA (human, UniProt Q9UKJ1 20-197); experiment: SPR, Biacore T200, antibody captured by anti-Fab
# T5 sequence (Q9UKJ1 20-197 limits assumed): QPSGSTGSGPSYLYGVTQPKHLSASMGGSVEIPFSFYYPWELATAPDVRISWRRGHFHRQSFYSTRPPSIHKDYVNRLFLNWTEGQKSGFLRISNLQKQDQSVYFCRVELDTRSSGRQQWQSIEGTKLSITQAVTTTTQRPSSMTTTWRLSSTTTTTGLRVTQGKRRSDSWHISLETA
# Experimental: (§3) A subset of these antibodies was further evaluated using the Biacore T200 (Cytiva). Anti-PILRA antibodies were diluted to 10 μg/mL and captured using an anti-Fab (Cytiva, #28958325) surface on a CM4 chip, that was prepared by amine coupling according to the manufacturer's protocol. Human PILRA and cynomolgus PILRB were diluted in running buffer to 130 nM, and diluted 4-fold serially, twice, to 8 nM. Human PILRB was similarly diluted from 260 nM to 16 nM. These analytes were injected and allowed 2 minutes of association, followed by dissociation for 5 minutes.
# (§4) Data were analyzed using Biacore evaluation software to generate kinetic constants. The equilibrium dissociation constants (KD) were calculated from the fitted association and dissociation rate constants (k-on and k-off) for each of the anti-PILRA antibodies. These Kn values are indicated with asterisks in Table 8 below.
# recombinant human PILRB [7] = target: T4, recombinant human PILRB; experiment: SPR, Biacore T200, antibody captured by anti-Fab
# Experimental: as §3, §4
# [8] = target: T1, human PILRA G78 on HEK293F cells; experiment: hA Kd of Table 9; method not stated (Example 8: HEK293F overexpressing cells, FACS)
# [9] = target: T6, cynomolgus PILRA on HEK293F cells (cynomolgus monkey, UniProt A0A7N9CRU1 20-292); experiment: cA Kd of Table 9; method not stated (Example 8: HEK293F overexpressing cells, FACS)
# T6 sequence (A0A7N9CRU1 entry or part of it): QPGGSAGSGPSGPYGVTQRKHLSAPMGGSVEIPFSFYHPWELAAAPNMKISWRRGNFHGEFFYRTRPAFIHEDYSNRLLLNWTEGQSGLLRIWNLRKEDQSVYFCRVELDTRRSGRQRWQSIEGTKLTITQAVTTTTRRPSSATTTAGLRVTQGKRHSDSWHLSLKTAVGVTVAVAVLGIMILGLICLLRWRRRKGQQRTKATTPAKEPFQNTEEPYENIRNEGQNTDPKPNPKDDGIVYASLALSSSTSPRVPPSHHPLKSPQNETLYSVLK
# [10] = target: T6, cynomolgus PILRA on HEK293F cells; experiment: flow cytometry; HEK293F cells overexpressing cynomolgus PILRA, goat anti-human IgG Alexa Fluor 647
# [11] = target: T7, recombinant cynomolgus PILRA (SEQ ID NO:120) (cynomolgus monkey); experiment: SPR, Carterra LSA, antibody amine-coupled, kinetic fit
# T7 construct: also called cyno PILRA
# T7 sequence (chain, as listed by the source limits assumed): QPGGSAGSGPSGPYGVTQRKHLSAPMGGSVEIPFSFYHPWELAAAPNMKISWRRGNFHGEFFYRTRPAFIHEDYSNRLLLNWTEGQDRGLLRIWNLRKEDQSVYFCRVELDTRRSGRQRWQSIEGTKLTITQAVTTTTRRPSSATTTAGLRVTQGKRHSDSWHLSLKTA
# recombinant human PILRA [12] = target: T5, recombinant human PILRA; experiment: as above
# [13] = target: T2, cell surface PILRA on human monocytes; experiment: flow cytometry; Alexa Fluor 647-conjugated antibody on human CD14+ monocytes, Fc receptors blocked, 30 min on ice
# Experimental: as §2
# [14] = target: T1, human PILRA G78 on HEK293F cells; experiment: flow cytometry; HEK293F cells overexpressing human PILRA, goat anti-human IgG Alexa Fluor 647
# Experimental: as §1
# T1 sequence (Q9UKJ1 20-303 R78G): as the sequence (Q9UKJ1 20-303) above, with R59G counted along it
hA/hB binding ratio on HEK293F [1],EC50 (read off the curve) [2] [µg/mL],Kd [3] [nM],Hu Mono DR EC50 [4] [µg/mL],Kd (recombinant human PILRB [5]) [nM],Kd (recombinant human PILRA [6]) [nM],Kd (recombinant human PILRB [7]) [nM],Kd [8] [nM],Kd [9] [nM],EC50 (read off the curve) [10] [µg/mL],Kd [11] [nM],Kd (recombinant human PILRA [12]) [nM],EC50 (read off the curve) [13] [µg/mL],EC50 (read off the curve) [14] [µg/mL],Binder
71.1,~0.1,216,0.1,53,3.1,157,0.8,8.9,~0.6,1.5,3.5,,,"X2 (antibody, V domains shown, conditioned media in the HEK293F assays) VH: QVQLVQSGAEVKKPGSSVKVSCKASGYNFLHYDVNWVRQAPGQGLEWMGGIIPIFGTANYAQKFQGRVTITADESTSTAYMELSSLRSEDTAVYYCATAVGAGWFDPWGQGTLVTVSS VL: not shown"
79.8,~0.1,,0.3,80,3.4,142,1.6,2.3,~0.5,0.3,4.8,~0.2,~0.3,"X11 (antibody, human IgG4, V domains shown, conditioned media in the HEK293F assays) VH: QVQLVQSGAEVKKPGSSVKVSCKASGYNFLNYDVNWVRQAPGQGLEWMGGIIPIFGTANYAQKFQGRVTITADESTSTAYMELSSLRSEDTAVYYCATGVGAGWFDPWGQGTLVTVSS VL: DIVMTQSPDSLAVSLGERATINCKSSQSVYFSENNKNYLAWYQQKPGQPPKLLIYWASTRESGVPDRFSGSGSGTDFTLTISSLQAEDVAVYYCQQYYEEPYTFGQGTRLEIK"
